Assay results taken from patent publication US20200339678A1 (RIGEL PHARMACEUTICALS, published 2020).

T1: His-tagged recombinant Human TIGIT (human, UniProt Q495A1 22-141)
T1 construct: also called VSIG9; VSTM3; not shown: His tag
T1 sequence (looked up): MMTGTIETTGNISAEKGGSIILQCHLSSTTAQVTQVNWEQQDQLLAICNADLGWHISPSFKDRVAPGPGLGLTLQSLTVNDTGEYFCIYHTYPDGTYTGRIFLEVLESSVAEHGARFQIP

T2: His-tagged recombinant Mouse TIGIT (mouse, UniProt P86176 29-148, limits assumed)
T2 construct: not shown: His tag
T2 sequence (looked up): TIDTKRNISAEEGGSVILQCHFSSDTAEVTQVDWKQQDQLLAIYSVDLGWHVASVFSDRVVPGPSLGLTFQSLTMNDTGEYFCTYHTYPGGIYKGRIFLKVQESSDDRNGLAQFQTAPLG


How the values were obtained:
[1] = biological target: T1, His-tagged recombinant Human TIGIT; assay: ELISA, coated His-tagged human TIGIT
Protocol: (§1) Binding affinities for antigen binding to anti-TIGIT monoclonal antibodies were determined by ELISA. […] Antibodies to be tested were diluted to 1 μM in PBS buffer containing 1% BSA and diluted 3-fold in a 10-point curve. […] Detection of the secondary antibody was determined using streptavidin-HRP and TMB reagent. All assays were performed at room temperature. Curve-fitting software was used to determine the EC₅₀ for each antibody.

[2] = biological target: T2, His-tagged recombinant Mouse TIGIT; assay: ELISA, coated His-tagged mouse TIGIT
Protocol: as §1

| Binder | EC50 [1] [nM] | EC50 [2] [nM] |
| --- | --- | --- |
| Ab28 (Fab, V domains shown, ARV set) VH: EVQLLESGGGLVQPGGSLRLSCAASGFTFSSYSMHWVRQAPGKGLEWVANINSNGGNTGYADSVKGRFTISRDNSKNTLYLQMNSLRAEDTAVYYCARVPYDVWMDYWGQGTLVTVSS VL: not shown | 7.5 | 28.7 |
| Ab13 (Fab, V domains shown, ARV set) VH: EVQLLESGGGLVQPGGSLRLSCAASGFTFDSYSMHWVRQAPGKGLEWVSSINSNGGYKYYADSVKGRFTISRDNSKNTLYLQMNSLRAEDTAVYYCARVPYDYWIDYWGQGTLVTVSS VL: not shown | 43.1 | 59.2 |
| Ab172 (Fab, V domains shown, ARV set) VH: EVQLLESGGGLVQPGGSLRLSCAASGFTFSSYSMHWVRQAPGKGLEWVSSIKSSAGYTYYADSVKGRFTISRDNSKNTLYLQMNSLRAEDTAVYYCARVPYDYWIDYWGQGTLVTVSS VL: not shown | 83.2 | 108 |
| Ab23 (Fab, V domains shown, ARE set) VH: EVQLLESGGGLVQPGGSLRLSCAASGFTFSSYAMSWVRQAPGKGLEWVARINSDSSNTYYADSVKGRFTISRDNSKNTLYLQMNSLRAEDTAVYYCAREPYSYWLDYWGQGTLVTVSS VL: not shown | 289 | 74.4 |
| Ab7 (Fab, V domains shown, ARE set) VH: EVQLLESGGGLVQPGGSLRLSCAASGFTFSSYAMSWVRQAPGKGLEWVASIKSSSSSISYADSVKGRFTISRDNSKNTLYLQMNSLRAEDTAVYYCAREPYSYWLDYWGQGTLVTVSS VL: not shown | 14.6 | 11.5 |
| Ab32 (Fab, V domains shown, ARV set) VH: EVQLLESGGGLVQPGGSLRLSCAASGFTFSSYSMHWVRQAPGKGLEWVANINSNGGNTGYADSVKGRFTISRDNSKNTLYLQMNSLRAEDTAVYYCARVPYDVWMDYWGQGTLVTVSS VL: not shown | 4.3 | 14.7 |
| Ab41 (Fab, V domains shown, ARV set) VH: EVQLLESGGGLVQPGGSLRLSCAASGFTFSSYSMHWVRQAPGKGLEWVASIKSSGGYISYADSVKGRFTISRDNSKNTLYLQMNSLRAEDTAVYYCARVPYDYWMDYWGQGTLVTVSS VL: not shown | 11 | 9.5 |
| Ab74 (Fab, V domains shown, ARV set) VH: EVQLLESGGGLVQPGGSLRLSCAASGFTFSSYSMHWVRQAPGKGLEWVASISSNAGTTGYADSVKGRFTISRDNSKNTLYLQMNSLRAEDTAVYYCARVPYDYWIDYWGQGTLVTVSS VL: not shown | 177 | 41.9 |
| Ab19 (Fab, V domains shown, ARE set) VH: EVQLLESGGGLVQPGGSLRLSCAASGFTFSSYSMSWVRQAPGKGLEWVANIKSNSGYTYYADSVKGRFTISRDNSKNTLYLQMNSLRAEDTAVYYCAREPYSVWLDYWGQGTLVTVSS VL: not shown | 19.8 | 64.8 |
| Ab47 (Fab, V domains shown, ARG set) VH: EVQLLESGGGLVQPGGSLRLSCAASGFTFSSYSMNWVRQAPGKGLEWVASIKSSSSYTSYADSVKGRFTISRDNSKNTLYLQMNSLRAEDTAVYYCARGPYDTWLDYWGQGTLVTVSS VL: not shown | 34.9 | 361 |

Further binders by falling EC50 [1], results first:

| EC50 [1] [nM] | EC50 [2] [nM] | Binder |
| --- | --- | --- |
| 155 | 228 | Ab179 (Fab, V domains shown, ARE set) VH: EVQLLESGGGLVQPGGSLRLSCAASGFTFSSYAMSWVRQAPGKGLEWVASIKSNTGSTYYADSVKGRFTISRDNSKNTLYLQMNSLRAEDTAVYYCAREPYSVWLDYWGQGTLVTVSS VL: not shown |
| 101 | 40.7 | Ab10 (Fab, V domains shown, ARG set) VH: EVQLLESGGGLVQPGGSLRLSCAASGFTFSSYSMNWVRQAPGKGLEWVAYIKSNSGTKGYADSVKGRFTISRDNSKNTLYLQMNSLRAEDTAVYYCARGPYDYWLDYWGQGTLVTVSS VL: not shown |
| 91.9 | 21.5 | Ab54 (Fab, V domains shown, ARE set) VH: EVQLLESGGGLVQPGGSLRLSCAASGFTFSSYAMSWVRQAPGKGLEWVSSIKSNTGSTSYADSVKGRFTISRDNSKNTLYLQMNSLRAEDTAVYYCAREPYSYWLDYWGQGTLVTVSS VL: not shown |
| 81.7 | 235 | Ab72 (Fab, V domains shown, ARV set) VH: EVQLLESGGGLVQPGGSLRLSCAASGFTFSSYSMHWVRQAPGKGLEWVAAIKSDAGTSGYADSVKGRFTISRDNSKNTLYLQMNSLRAEDTAVYYCARVPYDYWIDYWGQGTLVTVSS VL: not shown |
| 44.9 | 104 | Ab191 (Fab, V domains shown, ARV set) VH: EVQLLESGGGLVQPGGSLRLSCAASGFTFSSYSMHWVRQAPGKGLEWVSSIKSSASYSSYADSVKGRFTISRDNSKNTLYLQMNSLRAEDTAVYYCARVPYDYWMDYWGQGTLVTVSS VL: not shown |
| 40.3 | 181 | Ab1 (Fab, V domains shown, ARV set; also called clone Ab1) VH: EVQLLESGGGLVQPGGSLRLSCAASGFTFSSYAMHWVRQAPGKGLEWVSGISSNGGSTSYADSVKGRFTISRDNSKNTLYLQMNSLRAEDTAVYYCARVPYSVWIDYWGQGTLVTVSS VL: not shown |
| 32.8 | 234 | Ab155 (Fab, V domains shown, ARE set) VH: EVQLLESGGGLVQPGGSLRLSCAASGFTFSSYSMNWVRQAPGKGLEWVAAISGDTGTSGYADSVKGRFTISRDNSKNTLYLQMNSLRAEDTAVYYCAREPYSVWLDYWGQGTLVTVSS VL: not shown |
| 27.6 | 58 | Ab49 (Fab, V domains shown, ARG set) VH: EVQLLESGGGLVQPGGSLRLSCAASGFTFSSYSMHWVRQAPGKGLEWVASIKSSGGYKSYADSVKGRFTISRDNSKNTLYLQMNSLRAEDTAVYYCARGPYDVWIDYWGQGTLVTVSS VL: not shown |
| 13.8 | 41.8 | Ab48 (Fab, V domains shown, ARG set; also called clone Ab48) VH: EVQLLESGGGLVQPGGSLRLSCAASGFTFSSYSMNWVRQAPGKGLEWVANIKSSGSSTSYADSVKGRFTISRDNSKNTLYLQMNSLRAEDTAVYYCARGPYDVWMDYWGQGTLVTVSS VL: not shown |
| 9.1 | 5.1 | Ab22 (Fab, V domains shown, ARV set) VH: EVQLLESGGGLVQPGGSLRLSCAASGFTFSSYSMHWVRQAPGKGLEWVASIKSSGGSKYYADSVKGRFTISRDNSKNTLYLQMNSLRAEDTAVYYCARVPYDYWMDYWGQGTLVTVSS VL: not shown |
| 8.2 | 95 | Ab46 (Fab, V domains shown, ARV set) VH: EVQLLESGGGLVQPGGSLRLSCAASGFTFSSYSMHWVRQAPGKGLEWVAGIWSSGGTTSYADSVKGRFTISRDNSKNTLYLQMNSLRAEDTAVYYCARVPYGVWMDYWGQGTLVTVSS VL: not shown |
| 5 | 8.4 | Ab15 (Fab, V domains shown, ARV set) VH: EVQLLESGGGLVQPGGSLRLSCAASGFTFSSYSMHWVRQAPGKGLEWVASIWSNSGNTGYADSVKGRFTISRDNSKNTLYLQMNSLRAEDTAVYYCARVPYDYWMDYWGQGTLVTVSS VL: not shown |
| 3.4 | 5.7 | Ab143 (Fab, V domains shown, ARV set; also called clone Ab143) VH: EVQLLESGGGLVQPGGSLRLSCAASGFTFSSYSMHWVRQAPGKGLEWVAAINSNAGSSSYADSVKGRFTISRDNSKNTLYLQMNSLRAEDTAVYYCARVPYGVWMDYWGQGTLVTVSS VL: not shown |
